According to US20230053603A1 (ADC THERAPEUTICS, published 2023):

T1: rat Dlk-1 (rat, UniProt O70534 24-306, limits assumed)
T1 sequence (looked up): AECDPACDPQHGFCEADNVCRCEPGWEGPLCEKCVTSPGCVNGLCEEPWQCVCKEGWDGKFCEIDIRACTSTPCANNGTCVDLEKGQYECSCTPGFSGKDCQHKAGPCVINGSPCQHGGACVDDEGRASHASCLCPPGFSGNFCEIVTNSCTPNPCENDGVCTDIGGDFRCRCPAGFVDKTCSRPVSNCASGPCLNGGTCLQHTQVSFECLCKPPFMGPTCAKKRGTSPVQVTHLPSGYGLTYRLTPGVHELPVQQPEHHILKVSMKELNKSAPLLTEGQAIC

T2: Human KAAG1 (Kidney associated antigen 1) (human, UniProt Q9UBP8 1-84)
T2 sequence: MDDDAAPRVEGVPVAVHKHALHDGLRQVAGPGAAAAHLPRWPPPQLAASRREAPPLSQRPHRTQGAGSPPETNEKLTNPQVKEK

B1: ConjA1 (anti-DLK1 antibody HuBa-1-3d conjugated to drug linker 4) (antibody, V domains shown)
VH: QVQLVQSGAEVKKPGASVKVSCKGSGYTFTDYAMHWVRQAPGQGLEWIGVISTYYGNTNYNQKFKGKATMTVDKSTSTAYMELRSLRSDDTAVYYCARGGLREYYYAMDYWGQGTMVTVSS
VL: DIVMTQSPDSLAVSLGERATINCKSSQSLLNSSNQKNYLAWYQQKPGQPPKLLVYFASTRESGVPDRFSGSGSGTDFTLTISSLQAEDVAVYYCQQHYSTPPTFGQGTKLEIKR
modifications: PBD drug linker 4 (PL1601) attached through the remodelled glycan (GalNAc-N3) on Asn297; average DAR of 1.87
notes: also called anti-DLK1 ADC; ADC
B2: ConjA2 (anti-KAAG1 antibody 3A4 conjugated to drug linker 4 / PL1601) (antibody, human IgG1, kappa, V domains shown)
VH: QIQLVQSGAEVKKPGASVKVSCKASGYTFTDDYMSWVKQAPGQGLEWIGDINPYNGDTNYNQKFKGKATLTVDKSTSTAYMELSSLRSEDTAVYYCARDPGAMDYWGQGTLVTVSS
VL: DIVMTQTPLSLPVTPGEPASISCRSSQSLLHSNGNTYLEWYLQKPGQSPQLLIYTVSNRFSGVPDRFSGSGSGTDFTLKISRVEAEDVGVYYCFQGSHVPLTFGQGTKLEIKR
modifications: PBD drug linker PL1601 (4) attached through the remodelled glycan (GalNAc-N3) on Asn297; average DAR of 1.9

Assays:
rat Dlk-1 = molecular target: T1, rat Dlk-1; assay: not described (stated in the heading of the rat toxicology study)
[1] = molecular target: T2, Human KAAG1 (Kidney associated antigen …); assay: cell-based or functional assay

Binder	binding result (rat Dlk-1)	EC50, in vitro cytotoxicity (CellTiter-Glo) on MDA-MB-231 cells [1]	EC50, in vitro cytotoxicity (CellTiter-Glo) on SN12C cells [1]
B1	no binding		
B2		0.226 µg/mL	0.0663 µg/mL
